Molecular target: T1, Gal4 DNA binding domain (DBD) fused to the RXR ligand binding domain (GBD:RXR) (yeast; human, UniProt P04386 1-147; P19793 203-462, limits assumed)
T1 construct: Expressed inside yeast (PJ69-4A or MaV103) from plasmid pGBDRXR; The order DBD then LBD follows the name GBD:RXR; also called wild-type GBD:RXR; product of pGBDRXR
Assay: yeast two-hybrid type growth selection (chemical complementation), PJ69-4A on SC-Ade plates with 10^-5 M 9cRA
Method: The same colony was used for streaking on all the plates, ending with a SC plate to confirm efficient transfer of the cells to each plate. Both selective and non-selective plates were incubated at 30° C. for two days. Each set of genetic selection plates was replicated at least once.

- binding result: no binding
B1: Gal4 activation domain (GAD) without a coactivator domain (other, yeast, UniProt P04386 768-881, looked up)
chain: ANFNQSGNIADSSLSFTFTNSSNGPNLITTQTNSQALSQPIASSNVHDNFMNNEITASKIDDGNNSKPLSPGWTDQTAYNAFGITTGMFNTTTMDDVYNYLFDDEDTPPNPKKE
notes: range 768-881; Control expressed from pGAD10; also called Gal4 AD only; product of pGAD10

Reference: patent US20110027820A1 (GEORGIA TECH RESEARCH, published 2011)
